Laboratory results published in US12630600B2 (MEDIMMUNE LIMITED, priority 2022, dated 2026).
Starred links: 1 amine or outer side, 2 acyl side, 3 side chain; linkers in the order of their positions; H or OH if unused. Non-standard residues stand in square brackets, D forms with d. Groups on a side chain read outwards from the residue. Primed or numbered codes have the meaning given here. No end group written: not given here. *: point of attachment. C18 diacid = O=C(O)CCCCCCCCCCCCCCCCC(=O)*; Dip = N[C@H](C(=O)O)C(c1ccccc1)c1ccccc1; Heptadecanoyl = CCCCCCCCCCCCCCCCC(=O)*; γGlu = O=C(O)[C@H](CCC(=O)[*:2])N[*:1]; Stearoyl = CCCCCCCCCCCCCCCCCC(=O)*; Palmitoyl = CCCCCCCCCCCCCCCC(=O)*; αMeF = C[C@](N)(Cc1ccccc1)C(=O)O; Myristoyl = CCCCCCCCCCCCCC(=O)*; (PEG)2 = polyethylene glycol 2; PEG2′ = polyethylene glycol 2; PEG4′ = polyethylene glycol; Dodecyl = CCCCCCCCCCCC*; PEG2 = NCCOCCOCCC(=O)O; AEEA = NCCOCCOCC(=O)O; Aib = CC(C)(N)C(=O)O

Tests used:
human GLP-1 receptor = human GLP-1 receptor (human, UniProt P43220); test: cell-based or functional assay
human glucagon receptor = human glucagon receptor (human, UniProt P47871); test: cell-based or functional assay

| cAMP production, hGLP-1R EC50 (pM) (human GLP-1 receptor) | cAMP production, hGluc-R EC50 (pM) (human glucagon receptor) | Binder |
| --- | --- | --- |
| 698 pM | > 26800 pM | HSQGS[αMeF]TSDVSK(Ac)[Aib]LDSK([AEEA-AEEA-γGlu-C18 diacid])AAQD[αMeF]VQ[Aib]IAN-NH2 (N-terminus assumed; SMILES CC[C@H](C)[C@H](NC(=O)C(C)(C)NC(=O)[C@H](CCC(N)=O)NC(=O)[C@@H](NC(=O)[C@](C)(Cc1ccccc1)NC(=O)[C@H](CC(=O)O)NC(=O)[C@H](CCC(N)=O)NC(=O)[C@H](C)NC(=O)[C@H](C)NC(=O)[C@H](CCCCNC(=O)COCCOCCNC(=O)COCCOCCNC(=O)CC[C@H](NC(=O)CCCCCCCCCCCCCCCCC(=O)O)C(=O)O)NC(=O)[C@H](CO)NC(=O)[C@H](CC(=O)O)NC(=O)[C@H](CC(C)C)NC(=O)C(C)(C)NC(=O)[C@H](CCCCNC(C)=O)NC(=O)[C@H](CO)NC(=O)[C@@H](NC(=O)[C@H](CC(=O)O)NC(=O)[C@H](CO)NC(=O)[C@@H](NC(=O)[C@](C)(Cc1ccccc1)NC(=O)[C@H](CO)NC(=O)CNC(=O)[C@H](CCC(N)=O)NC(=O)[C@H](CO)NC(=O)[C@@H](N)Cc1c[nH]cn1)[C@@H](C)O)C(C)C)C(C)C)C(=O)N[C@@H](C)C(=O)N[C@@H](CC(N)=O)C(N)=O) [Peptide 109] |
| 4.12 pM | 9.55 pM | HSQGS[αMeF]TSDVSK[Dip]LDSK([(PEG)2-γGlu-(PEG)2-γGlu-Stearoyl])AAQD[αMeF]VE[Aib]IINT-NH2 [Peptide 61] |
| 3.77 pM | 15.3 pM | HSQGS[αMeF]TSDVSK[αMeF]LDSK([PEG2′-PEG2′-γGlu-γGlu-Palmitoyl])AAQD[αMeF]VQ[Aib]IAN-NH2 (not fully specified) [Peptide 89] |
| 10.1 pM | 15.2 pM | HSQGS[αMeF]TSDVSK[Dip]LDSK([(PEG)2-(PEG)2-γGlu-γGlu-Dodecyl])AAQD[αMeF]VE[Aib]IINT-NH2 [Peptide 62] |
| 3.42 pM | 73.7 pM | H[Aib]QGS[αMeF]TSDVSK[αMeF]LDSK([PEG4′-γGlu-γGlu-Palmitoyl])AAQD[αMeF]VE[Aib]LEAGG-NH2 [Peptide 72] |
| 0.258 pM | 40.5 pM | HSQGS[αMeF]TSDVSK[Aib]LDSK([(PEG)2-(PEG)2-γGlu-γGlu-Stearoyl])AAQD[αMeF]VQ[Aib]IAN-NH2 [Peptide 100] |
| 0.627 pM | 48.5 pM | HSQGS[αMeF]TSDVSK(Ac)[Aib]LDSK([(PEG)2-(PEG)2-γGlu-γGlu-Stearoyl])AAQD[αMeF]VQ[Aib]IAN-NH2 [Peptide 110] |
| 2.21 pM | 33.2 pM | HSQGS[αMeF]TSDVSK[Aib]LDSK([(PEG)2-(PEG)2-γGlu-γGlu-Palmitoyl])AAQD[αMeF]VQ[Aib]IIE-NH2 [Peptide 99] |
| 1.04 pM | 6.47 pM | HSQGS[αMeF]TSDVSK[αMeF]LDSK([(PEG)2-(PEG)2-γGlu-γGlu-Heptadecanoyl])AAQD[αMeF]VQ[Aib]IAN-NH2 [Peptide 88] |
| 1230 pM | 2060 pM | HSQGS[αMeF]TSDVSK[Dip]LDSK([PEG2-PEG2-γGlu-γGlu-C18 diacid])AAQD[αMeF]VE[Aib]IINT-NH2 [Peptide 65] |
| 14.5 pM | 47.7 pM | H[Aib]HGS[αMeF]TSDVSK[αMeF]LDSK([AEEA-AEEA-γGlu-C18 diacid])AARDFVQ[Aib]IANT-NH2 (N-terminus assumed; SMILES CC[C@H](C)[C@H](NC(=O)C(C)(C)NC(=O)[C@H](CCC(N)=O)NC(=O)[C@@H](NC(=O)[C@H](Cc1ccccc1)NC(=O)[C@H](CC(=O)O)NC(=O)[C@H](CCCNC(=N)N)NC(=O)[C@H](C)NC(=O)[C@H](C)NC(=O)[C@H](CCCCNC(=O)COCCOCCNC(=O)COCCOCCNC(=O)CC[C@H](NC(=O)CCCCCCCCCCCCCCCCC(=O)O)C(=O)O)NC(=O)[C@H](CO)NC(=O)[C@H](CC(=O)O)NC(=O)[C@H](CC(C)C)NC(=O)[C@](C)(Cc1ccccc1)NC(=O)[C@H](CCCCN)NC(=O)[C@H](CO)NC(=O)[C@@H](NC(=O)[C@H](CC(=O)O)NC(=O)[C@H](CO)NC(=O)[C@@H](NC(=O)[C@](C)(Cc1ccccc1)NC(=O)[C@H](CO)NC(=O)CNC(=O)[C@H](Cc1c[nH]cn1)NC(=O)C(C)(C)NC(=O)[C@@H](N)Cc1c[nH]cn1)[C@@H](C)O)C(C)C)C(C)C)C(=O)N[C@@H](C)C(=O)N[C@@H](CC(N)=O)C(=O)N[C@H](C(N)=O)[C@@H](C)O) [Peptide 12] |
| 2.43 pM | 9.49 pM | H[Aib]QGS[αMeF]TSDVSK[Dip]LDSK([PEG2′-PEG2′-γGlu-Palmitoyl])AAQD[αMeF]VQ[Aib]IAN-NH2 [Peptide 67] |
| 1.73 pM | 10.7 pM | HSQGS[αMeF]TSDVSK[αMeF]LDSK([PEG2′-PEG2′-γGlu-γGlu-Palmitoyl])AAQD[αMeF]VQ[Aib]LEAGG-NH2 [Peptide 79] |
| 1.03 pM | 9.18 pM | HSQGS[αMeF]TSDVSK[αMeF]LDSKAAQD[αMeF]VQ[Aib]LEAGG-NH2 (not fully specified (residue 17)) [Peptide 80] |
| 2.57 pM | 3.06 pM | HSQGS[αMeF]TSDVSK[Dip]LDSK([PEG2′-PEG2′-γGlu-γGlu-Palmitoyl])AAQD[αMeF]VE[Aib]IINT-NH2 [Peptide 64] |
| 157 pM | 118 pM | H[Aib]HGS[αMeF]TSDVSK[αMeF]LDSK([AEEA-AEEA-γGlu-C18 diacid])AAQDFVQ[Aib]IANT-NH2 [Peptide 11] |
| 1.29 pM | 8.46 pM | HSQGS[αMeF]TSDVSK[αMeF]LDSK([(PEG)2-(PEG)2-γGlu-γGlu-Palmitoyl])AAQD[αMeF]VQ[Aib]IAN-NH2 [Peptide 87] |
| 3.14 pM | 2.49 pM | HSQGS[αMeF]TSDVSK[Dip]LDSK([(PEG)2-(PEG)2-γGlu-γGlu-Myristoyl])AAQD[αMeF]VE[Aib]IINT-NH2 [Peptide 63] |
